Measured values from publication PMC3605642 (The Journal of Biological Chemistry, 2013).
Where a chain is given by its changes, count along the chain named. In names and notes the source's numbering stands. Read-outs that look alike come from different tables or passages of the source.

T1: vinculin domain 1 (Vd1; residues 1–258) (chicken, UniProt P12003 1-258)
T1 sequence (looked up): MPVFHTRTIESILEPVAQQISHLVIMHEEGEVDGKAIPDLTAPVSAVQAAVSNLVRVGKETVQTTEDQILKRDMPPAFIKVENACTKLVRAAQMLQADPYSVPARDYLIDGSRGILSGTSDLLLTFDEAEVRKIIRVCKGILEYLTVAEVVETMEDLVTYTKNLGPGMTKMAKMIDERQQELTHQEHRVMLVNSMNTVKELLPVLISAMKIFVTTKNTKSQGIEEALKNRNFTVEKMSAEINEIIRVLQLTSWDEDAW

B1: talin R3 rod domain (residues 787–911) (domain or fragment, mouse, UniProt P26039 787-911, looked up)
chain: AHATGAGPAGRYDQATDTILTVTENIFSSMGDAGEMVRQARILAQATSDLVNAIKADAEGESDLENSRKLLSAAKILADATAKMVEAAKGAAAHPDSEEQQQRLREAAEGLRMATNAAAQNAIKK
B2: talin R3 IVVI mutant (T809I/T833V/T867V/T901I) (domain or fragment, mouse, UniProt P26039 787-911, looked up)
chain: B1 chain with T23I, T47V, T81V, T115I
B3: talin VBS (residues 820–844) in talin R3 (peptide, UniProt P26039 820-844, looked up)
peptide: GEMVRQARILAQATSDLVNAIKADA
B4: RIAM(1–32) (TBS1) (peptide, UniProt Q8R5A3 1-32, looked up)
peptide: MGESNEDIDQMFSTLLGEMDLLTQSLGVDTLP
B5: RIAM(1–127) (TBS1-TBS2) (domain or fragment)
chain: MGESNEDIDQMFSTLLGEMDLLTQSLGVDTLPPPDPNPPREEFNYTVGFKDLNESLNALEDQDLDALMADLVADISEAEQRTIQAQKESSQNQDRFALLRASDGQGTASGGYGASAAAIDVSHHEEA
B6: RIAM wild type peptide (6-30), TBS1 (peptide)
peptide: EDIDQMFSTLLGEMDLLTQSLGVDT

Columns and labels:
[1] = molecular target: vinculin domain 1 (Vd1; residues 1–258) (chicken) (UniProt P12003); assay: SEC-MALS
[2] = molecular target: T1, vinculin domain 1 (Vd1; residues 1–258); assay: SEC
[3] = molecular target: T1, vinculin domain 1 (Vd1; residues 1–258); assay: SEC; remark: listed apart in the source
[4] = molecular target: T1, vinculin domain 1 (Vd1; residues 1–258); assay: ITC
[5] = molecular target: B1; assay: ITC
[6] = molecular target: talin R2R3 double domain fragment (mouse); assay: ITC
Sequence of talin R2R3 double domain fragment (mouse) (P26039 whole entry, the tested form may be a part): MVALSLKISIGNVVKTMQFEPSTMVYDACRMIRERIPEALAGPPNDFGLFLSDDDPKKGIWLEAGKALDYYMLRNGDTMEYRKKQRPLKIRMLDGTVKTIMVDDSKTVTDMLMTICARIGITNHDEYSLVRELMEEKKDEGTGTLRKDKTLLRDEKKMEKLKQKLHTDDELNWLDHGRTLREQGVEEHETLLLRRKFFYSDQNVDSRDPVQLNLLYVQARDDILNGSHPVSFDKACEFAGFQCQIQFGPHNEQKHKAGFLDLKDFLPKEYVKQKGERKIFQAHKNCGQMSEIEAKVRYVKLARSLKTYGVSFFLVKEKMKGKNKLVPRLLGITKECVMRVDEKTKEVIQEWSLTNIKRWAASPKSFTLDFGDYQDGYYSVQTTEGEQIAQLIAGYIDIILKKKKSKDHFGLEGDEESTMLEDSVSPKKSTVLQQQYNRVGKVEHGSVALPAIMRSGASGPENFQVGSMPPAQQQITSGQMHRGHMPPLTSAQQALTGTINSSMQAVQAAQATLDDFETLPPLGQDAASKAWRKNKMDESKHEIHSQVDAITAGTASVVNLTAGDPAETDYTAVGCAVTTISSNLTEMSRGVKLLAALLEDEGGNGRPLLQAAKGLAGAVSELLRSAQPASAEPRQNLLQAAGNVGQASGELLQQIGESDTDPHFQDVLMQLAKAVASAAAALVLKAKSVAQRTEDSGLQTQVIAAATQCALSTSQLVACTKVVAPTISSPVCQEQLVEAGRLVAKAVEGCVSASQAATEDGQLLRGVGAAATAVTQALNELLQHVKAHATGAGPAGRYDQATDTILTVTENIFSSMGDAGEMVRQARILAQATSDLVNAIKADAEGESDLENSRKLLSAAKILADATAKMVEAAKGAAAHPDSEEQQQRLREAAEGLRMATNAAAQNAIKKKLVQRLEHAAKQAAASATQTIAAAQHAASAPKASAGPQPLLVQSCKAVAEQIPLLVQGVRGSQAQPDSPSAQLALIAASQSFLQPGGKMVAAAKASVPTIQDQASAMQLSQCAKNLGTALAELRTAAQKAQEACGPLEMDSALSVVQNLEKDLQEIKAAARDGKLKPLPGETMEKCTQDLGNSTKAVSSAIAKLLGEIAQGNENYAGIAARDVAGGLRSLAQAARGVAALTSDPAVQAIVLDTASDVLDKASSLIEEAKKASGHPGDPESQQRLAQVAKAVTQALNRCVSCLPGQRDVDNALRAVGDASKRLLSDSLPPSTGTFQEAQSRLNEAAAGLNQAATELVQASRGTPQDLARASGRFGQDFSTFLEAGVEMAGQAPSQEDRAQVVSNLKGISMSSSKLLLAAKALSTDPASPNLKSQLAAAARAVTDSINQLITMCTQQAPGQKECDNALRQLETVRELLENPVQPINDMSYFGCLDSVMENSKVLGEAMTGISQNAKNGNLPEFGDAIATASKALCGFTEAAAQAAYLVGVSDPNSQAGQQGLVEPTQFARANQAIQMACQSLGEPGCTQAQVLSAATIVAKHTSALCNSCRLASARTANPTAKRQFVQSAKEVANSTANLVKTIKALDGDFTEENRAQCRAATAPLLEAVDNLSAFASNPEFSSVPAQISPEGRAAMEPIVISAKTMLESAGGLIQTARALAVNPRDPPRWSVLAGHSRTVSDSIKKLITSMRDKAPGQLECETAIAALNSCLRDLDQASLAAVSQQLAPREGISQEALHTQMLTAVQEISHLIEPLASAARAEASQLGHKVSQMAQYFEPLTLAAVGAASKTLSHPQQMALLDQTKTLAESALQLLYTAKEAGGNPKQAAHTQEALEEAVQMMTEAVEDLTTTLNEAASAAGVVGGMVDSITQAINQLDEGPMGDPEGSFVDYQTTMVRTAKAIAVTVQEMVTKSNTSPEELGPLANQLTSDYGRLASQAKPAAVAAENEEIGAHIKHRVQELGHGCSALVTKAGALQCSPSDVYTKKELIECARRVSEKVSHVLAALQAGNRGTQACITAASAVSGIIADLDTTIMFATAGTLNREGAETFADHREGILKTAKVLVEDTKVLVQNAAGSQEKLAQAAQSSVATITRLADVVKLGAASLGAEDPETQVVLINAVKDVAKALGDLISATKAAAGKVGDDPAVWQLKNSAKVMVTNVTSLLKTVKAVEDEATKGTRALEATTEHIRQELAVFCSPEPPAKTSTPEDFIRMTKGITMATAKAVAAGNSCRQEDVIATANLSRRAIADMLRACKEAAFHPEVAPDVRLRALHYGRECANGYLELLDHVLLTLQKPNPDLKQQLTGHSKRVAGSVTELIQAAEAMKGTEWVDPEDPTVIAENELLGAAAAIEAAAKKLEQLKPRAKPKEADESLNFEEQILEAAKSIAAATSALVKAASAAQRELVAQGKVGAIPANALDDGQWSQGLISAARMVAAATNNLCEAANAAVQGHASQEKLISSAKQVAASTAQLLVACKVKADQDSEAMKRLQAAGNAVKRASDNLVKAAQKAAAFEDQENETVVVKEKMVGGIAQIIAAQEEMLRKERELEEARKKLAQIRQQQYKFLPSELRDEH

[7] = molecular target: talin R2R3 double domain fragment (mouse); assay: SEC-MALS
[8] = molecular target: B2; assay: NMR titration
[9] = molecular target: B1; assay: NMR titration

Work on “talin R2R3 double domain fragment (domain or fragment)” yielded a stoichiometry N [1] of 4 Vd1 per R2R3.

B1: binds [2].

B2: binds [3].

B3 gave a Kd [4] of 800 nM and a dH [4] of -5.9 kcal.

With B4 the dH [4] was -1.5 kcal and the Kd [5] was 36000 nM.

In the case of B5, the Kd [6] is reported as 2000 nM and the stoichiometry N [7] is reported as 1.

B6: binds [8]; binds [9].
